Laboratory results taken from paper PMC9599074, “Integration of Power-Free and Self-Contained Microfluidic Chip with Fiber Optic Particle Plasmon Resonance Aptasensor for Rapid Detection of SARS-CoV-2 Nucleocapsid Protein”.

Biological target: SARS-CoV-2 nucleocapsid protein (N-protein) (SARS-CoV-2, UniProt P0DTC9 1-419)
Experiment: FOPPR biosensor kinetics; 1x PBS pH 7.4, […]; temperature not stated
Conditions: protein: commercial; chain copies: 2

Binder	Kd [nM]
NP-A61 (ssDNA, terminal amine (end not stated), coupled to carboxyl AuNP) DNA: GCTGGATGTTGACCTTTACAGATCGGATTCTGTGGGGCGTTAAACTGACACATCCAGC	5.02
NP-A48 (ssDNA, terminal amine (end not stated), coupled to carboxyl AuNP) DNA: GCTGGATGTCGCTTACGACAATATTCCTTAGGGGCACCGCTACATTGACACATCCAGC	2.63
